Earlier results on two substances are cited in paper PMC5871712.

The target of data set [1] is CRFR1 (Rattus norvegicus) (UniProt P35353).
Data set [2] has as its target CRFR2 (Rattus norvegicus) (UniProt P47866).
The target of data set [3] is CRFR1 (Rattus norvegicus) (UniProt P35353). The source holds these as a separate data set.
Data set [4] has as its target CRFR2 (Rattus norvegicus) (UniProt P47866). The source holds these as a separate data set.

Where two headings read alike, the source gives them in different places.

Chain of CRFR1 (Rattus norvegicus) (P35353 24-415): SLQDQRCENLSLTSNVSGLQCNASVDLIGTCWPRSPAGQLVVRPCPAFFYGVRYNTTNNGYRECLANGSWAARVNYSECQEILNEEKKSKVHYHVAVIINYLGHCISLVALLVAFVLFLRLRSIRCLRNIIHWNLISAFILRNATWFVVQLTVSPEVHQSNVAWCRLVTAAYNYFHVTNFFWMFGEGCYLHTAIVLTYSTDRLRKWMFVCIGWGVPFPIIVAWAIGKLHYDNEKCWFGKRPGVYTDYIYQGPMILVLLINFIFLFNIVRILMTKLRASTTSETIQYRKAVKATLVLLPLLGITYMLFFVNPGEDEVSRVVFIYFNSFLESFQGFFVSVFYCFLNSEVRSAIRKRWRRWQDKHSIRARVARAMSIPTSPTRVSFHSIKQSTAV
Chain of CRF (P01143 145-187): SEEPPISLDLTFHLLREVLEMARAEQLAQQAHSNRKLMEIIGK
Chain of CRFR2 (Rattus norvegicus) (P47866 20-411): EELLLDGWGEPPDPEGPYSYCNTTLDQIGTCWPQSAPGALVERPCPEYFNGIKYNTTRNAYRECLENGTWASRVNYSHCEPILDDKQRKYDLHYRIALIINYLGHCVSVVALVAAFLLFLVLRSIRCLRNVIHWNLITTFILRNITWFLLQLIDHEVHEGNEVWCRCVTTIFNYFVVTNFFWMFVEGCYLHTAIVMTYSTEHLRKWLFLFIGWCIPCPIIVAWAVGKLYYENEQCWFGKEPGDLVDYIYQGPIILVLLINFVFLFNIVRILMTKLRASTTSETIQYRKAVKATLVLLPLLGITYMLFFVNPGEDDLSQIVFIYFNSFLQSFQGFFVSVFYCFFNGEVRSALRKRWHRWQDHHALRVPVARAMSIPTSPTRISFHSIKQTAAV
Chain of Ucn1 (P55090 81-122): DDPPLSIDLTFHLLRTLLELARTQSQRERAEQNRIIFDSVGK

CRF (from UniProt P01143): the Ki (usually a measure of affinity in units of concentration, obtained from inhibition or displacement) in data set [1] is 1.6 nM; in data set [2], 42 nM.
Regarding Ucn1 (from UniProt P55090), the inhibition constant Ki in data set [3] is 0.17 nM; in data set [4], 0.86 nM.
